Changes are numbered by the printed parent chain. One block for each binder: values may come before it.
Assays:
[1] = target: T1, Mouse MuSK as it stands on mouse muscle (neuromuscular junctions, C2C12 myotubes) (mouse, UniProt Q61006 22-868); assay: cell-based or functional assay
T1 sequence (looked up): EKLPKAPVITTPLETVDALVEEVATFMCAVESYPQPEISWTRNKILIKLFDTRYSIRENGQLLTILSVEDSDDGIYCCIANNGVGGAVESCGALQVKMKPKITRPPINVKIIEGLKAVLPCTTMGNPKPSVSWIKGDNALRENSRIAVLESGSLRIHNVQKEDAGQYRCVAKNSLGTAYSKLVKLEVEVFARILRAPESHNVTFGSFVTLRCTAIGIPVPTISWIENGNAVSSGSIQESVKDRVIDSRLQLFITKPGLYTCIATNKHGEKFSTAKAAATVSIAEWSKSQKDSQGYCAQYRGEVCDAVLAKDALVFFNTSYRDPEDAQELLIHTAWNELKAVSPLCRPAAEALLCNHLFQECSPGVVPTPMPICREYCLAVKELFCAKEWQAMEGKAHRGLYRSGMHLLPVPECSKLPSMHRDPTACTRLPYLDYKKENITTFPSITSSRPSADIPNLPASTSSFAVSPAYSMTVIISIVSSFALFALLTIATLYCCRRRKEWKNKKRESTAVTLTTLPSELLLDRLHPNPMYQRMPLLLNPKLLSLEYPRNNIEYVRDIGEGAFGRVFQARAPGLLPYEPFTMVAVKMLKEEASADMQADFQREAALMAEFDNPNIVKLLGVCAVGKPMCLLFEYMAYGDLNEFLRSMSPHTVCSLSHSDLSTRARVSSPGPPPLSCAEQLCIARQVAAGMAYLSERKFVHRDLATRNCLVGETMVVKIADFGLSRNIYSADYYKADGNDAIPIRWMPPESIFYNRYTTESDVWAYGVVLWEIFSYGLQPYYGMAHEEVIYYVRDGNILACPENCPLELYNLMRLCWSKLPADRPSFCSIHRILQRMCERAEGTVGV

[2] = target: T2, Human MuSK (R&D Systems, cat. 10189-MK, histidine tag) (human, UniProt O15146 24-495); assay: SPR (Biacore), pH 7.4 (summary table, repeats the average of Table 16); pH 7.4
T2 construct: Bought protein; also called human monomeric MuSK-6xhis; not shown: histidine tag (6xhis)
T2 sequence: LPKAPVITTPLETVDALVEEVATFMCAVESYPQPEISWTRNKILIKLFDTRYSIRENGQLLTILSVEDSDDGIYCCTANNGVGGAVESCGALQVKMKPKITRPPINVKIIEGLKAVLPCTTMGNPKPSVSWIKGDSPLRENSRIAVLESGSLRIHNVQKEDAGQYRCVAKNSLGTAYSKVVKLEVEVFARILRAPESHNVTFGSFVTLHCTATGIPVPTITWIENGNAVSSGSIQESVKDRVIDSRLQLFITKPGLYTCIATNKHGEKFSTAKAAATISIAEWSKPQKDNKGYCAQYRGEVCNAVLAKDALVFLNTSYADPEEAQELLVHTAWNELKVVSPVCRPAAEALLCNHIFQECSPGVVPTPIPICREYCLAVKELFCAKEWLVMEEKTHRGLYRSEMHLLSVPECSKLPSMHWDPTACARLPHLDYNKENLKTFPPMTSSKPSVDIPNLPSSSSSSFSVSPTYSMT
Excerpt: (§1) In order to study pH dependent binding of our antibodies to MuSK, the Biacore was used with the same setup as described in the paragraph entitled “Binding affinity for mouse, human and rhesus monkey recombinant MuSK in Biacore”. 6. […] For the other antibodies there is no real difference observed between pH 7.4 and 5.5.

[3] = target: T2, Human MuSK (R&D Systems, cat. 10189-MK, …); assay: SPR (Biacore), antibody captured on anti-hFc chip; 0.625 nM; dissociation pH 5.5
Excerpt: as §1

AChR clusters larger or equal to 3 µm compared to agrin; Exp 1, batch Argenx [1]: 89 % of agrin
AChR clusters larger or equal to 3 µm compared to agrin; Exp 2, batch Argenx [1]: 95 % of agrin
AChR clusters larger or equal to 3 µm compared to agrin; Exp 3, batch UPX [1]: 91 % of agrin
koff [3]: 4e-05 s⁻¹
B3: 3D9b (antibody, human IgG1, kappa, L234A L235A, V domains shown)
VH: EVQLVESGGGLVKPGGSLRLSCAASGFTFSTYTMHWVRQAPGKGLEWVSSISSRSAYKYYADSVKGRFTISRDNAKNSLYLQMNSLRAEDTAVYYCARDFFQLGPPRFDSWGQGTLVTVSS
VL: DIQMTQSPSSLSASVGDRVTITCRASQRISSFLNWYQQKPGKAPKLLIYGASNLQSGVPSRFSGSGSGTDFTLTISSLQPEDFATYYCQQSYSPSYTFGQGTKLEIKR

AChR clusters larger or equal to 3 µm compared to agrin; Exp 1, batch Argenx [1]: 71 % of agrin
AChR clusters larger or equal to 3 µm compared to agrin; Exp 2, batch Argenx [1]: 105 % of agrin
AChR clusters larger or equal to 3 µm compared to agrin; Exp 3, batch UPX [1]: 69 % of agrin
koff [3]: 0.00014 s⁻¹
B4: 3F6c (antibody, human IgG1, kappa, L234A L235A, V domains shown)
VH: EVQLVESGGGLVKPGGSLRLSCAASGFTFSSYTMDWVRQAPGKGLEWVSSIGSNGDYIYYADSVRGRFTISRDNAKNSLYLQMNSLRAEDTAVYYCARGQLAVAGTHFDYWGQGTLVTVSS
VL: B3 VL with R28K, I29V, S30N, S31K, F32Y, L33V, G50A, N53T, S95L, Y96S

The remaining lines, values behind:

B1: 3D10a (antibody, human IgG1, kappa, L234A L235A, V domains shown)
VH: EVQLVESGGGLVKPGGSLRLSCAASGFTFSASTMAWVRQAPGKGLEWVSSVSGDSHHIYYADSLKGRFTISRDNAKNSLYLQMNSLRAEDTAVYYCARERLLRLGVGFDSWGQGTLVTVSS
VL: B3 VL with S31G, L33V, G50A, N53T, S95L
AChR clusters larger or equal to 3 µm compared to agrin; Exp 1, batch Argenx [1]: 64 % of agrin
AChR clusters larger or equal to 3 µm compared to agrin; Exp 2, batch Argenx [1]: 99 % of agrin
AChR clusters larger or equal to 3 µm compared to agrin; Exp 3, batch UPX [1]: 71 % of agrin
koff [2]: 0.00016 s⁻¹
koff [3]: 0.00012 s⁻¹

B2: 4D3 (antibody, human IgG1, kappa, L234A L235A, V domains shown)
VH: B1 VH with A31S, S32Y, A35T, V51I, G53S, D54G, S55G, H57Y, A61T, S110F
VL: B3 VL with R28S, S31G, F32Y, G50A, N53T, P94A, S95L
AChR clusters larger or equal to 3 µm compared to agrin; Exp 1, batch Argenx [1]: 102 % of agrin
AChR clusters larger or equal to 3 µm compared to agrin; Exp 2, batch Argenx [1]: 73 % of agrin
AChR clusters larger or equal to 3 µm compared to agrin; Exp 3, batch UPX [1]: 72 % of agrin
koff [3]: 0.00013 s⁻¹

— patent US20230110188A1 (ARGENX IIP, published 2023)
